Reference: PMC11040149

Target: RNA ligase from Palaeococcus pacificus (PpaRnl), wild-type (Palaeococcus pacificus)
Experiment: SEC

Work on “RNA ligase from Palaeococcus pacificus (PpaRnl), wild-type (enzyme)” yielded a stoichiometry N of 2.
